These are literature values, as cited in publication PMC8384639.

In this series the target is Histone H3 K4me3 peptide 1-15 (Homo sapiens) (UniProt P68431).

Turning to BPTF PHD (from UniProt Q12830), the dissociation constant (Kd) is 2700 nM.

What is called Kd is a measure of binding affinity in units of concentration.
